Values joined by “and” are separate entries in the source; they are usually repeats but may differ in a detail not shown here. Identical values can stand only once.

The results in this text go back to patent US20130130988A1.

The target in experiment [1] is TLR-6. The experiment in a line: microplate binding assay, complex adsorbed in wells, biotin-streptavidin visualisation.
The target of experiment [2] is galectin-1. Described as above. Conditions: scale: µg of macromolecular complex per 10 ng of galectin-1.

On to “macromolecular complex of Bifidobacterium longum CBi0703 (CNCM I-3994), prepared according to example 1 (fermentation with pH regulated)”, for which the concentration at saturation (µg of macromolecule per 10 ng of TLR6) in experiment [1] was 10 and 20. The concentration at saturation in experiment [2] was 20 and 10.
Turning to “macromolecular complex of Bifidobacterium longum CBi0703 (CNCM I-3994), prepared according to example 2 (fermentation with pH not regulated)”, the concentration at saturation (µg of macromolecule per 10 ng of TLR6) in experiment [1] is 10 and 20. Moreover, the concentration at saturation in experiment [2] is 10 and 20.
